Source: article PMC8591536, “DNA asymmetry promotes SUMO modification of the single‐stranded DNA‐binding protein RPA” (The EMBO Journal, 2021)
Each block holds one binder with its values, some of them ahead of it.

Assays:
Siz2∆CT = target: T1, Siz2∆CT (Saccharomyces cerevisiae? (budding …, UniProt Q12216 1-420)); assay: fluorescence polarization; FP: 20 mM HEPES pH 7.5, 125 mM NaCl, 0.1% Tween-20, 23°C, 50 nM DNA (RPA/SUMO-RPA on ss32: 1 nM DNA, plus 5 mM MgCl2, 1 mM DTT); EMSA: same buffer with 5 mM MgCl2 (Fig 8 also 1 mM DTT), 23°C, 6% gel in 0.5x TBE; details: protein: recombinant; tags: His6-thioredoxin removed with TEV; label: 5' 6-FAM on strand 1; blunt
T1 sequence: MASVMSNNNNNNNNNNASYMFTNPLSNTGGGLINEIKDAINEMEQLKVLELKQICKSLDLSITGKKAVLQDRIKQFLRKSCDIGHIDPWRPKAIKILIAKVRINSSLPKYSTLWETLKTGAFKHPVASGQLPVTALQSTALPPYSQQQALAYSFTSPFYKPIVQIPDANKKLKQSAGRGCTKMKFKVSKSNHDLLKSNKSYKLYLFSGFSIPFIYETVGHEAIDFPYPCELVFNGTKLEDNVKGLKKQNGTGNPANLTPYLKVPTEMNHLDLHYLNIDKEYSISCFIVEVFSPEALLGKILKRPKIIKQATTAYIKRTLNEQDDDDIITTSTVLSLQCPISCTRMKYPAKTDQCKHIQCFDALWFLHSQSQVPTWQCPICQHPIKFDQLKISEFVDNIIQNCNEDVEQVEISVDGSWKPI

[1] = target: T2, RPA reconstituted with ∆WH-Rfa2: Rfa1(1–621), His6-Rfa2(1–205), Rfa3(1–122) (budding yeast, UniProt P22336 1-621; P26754 1-205; P26755 1-122); assay: native gel or EMSA; 10 nM 6-FAM-ds20ss32 DNA pre-bound to RPA, RPA∆WH or SUMO-RPA, serially diluted full-length Siz2; 25 min at 23°C; 20 mM HEPES pH 7.5, 125 mM NaCl, 0.1% Tween-20, 5 mM MgCl2; native 6% polyacrylamide gel in 0.5x TBE; apparent Kd; details: both partners purified
T2 construct: Rfa1 subunit of RPA, budding yeast, residues 1-621, tagless; Rfa2 subunit of RPA, budding yeast, residues 1-205 (winged helix domain removed), noncleavable N-terminal hexahistidine tag; Rfa3 subunit of RPA, budding yeast, residues 1-122, tagless; The purification of this variant is not described on its own; also called RPA∆WH; RPA lacking the WH domain of Rfa2; source: E. coli BL21 (DE3) …

[2] = target: T3, replication protein A (RPA): Rfa1(1–621), His6-Rfa2(1–273), Rfa3(1–122) (budding yeast, UniProt P22336 1-621; P26754 1-273; P26755 1-122); assay: as above; details: both partners purified
T3 construct: Rfa1 subunit of RPA, budding yeast, residues 1-621, tagless; Rfa2 subunit of RPA, budding yeast, residues 1-273, noncleavable N-terminal hexahistidine tag; Rfa3 subunit of RPA, budding yeast, residues 1-122, tagless; also called wild-type RPA; source: E. coli BL21 (DE3) CodonPlus RIL, co-expressed, purified (Ni-NTA, HiTrap Heparin, Superdex200); not shown: His6, N-terminal, kept; copies: + +

RPA (Rfa1/Rfa2/Rfa3) = RPA (Rfa1/Rfa2/Rfa3) (Saccharomyces cerevisiae? (budding …, UniProt P22336;P26754;P26755 1-621;1-273;1-122)); assay: fluorescence polarization; 5 mM MgCl2; FP: 20 mM HEPES pH 7.5, 125 mM NaCl, 0.1% Tween-20, 23°C, 50 nM DNA (RPA/SUMO-RPA on ss32: 1 nM DNA, plus 5 mM MgCl2, 1 mM DTT); EMSA: same buffer with 5 mM MgCl2 (Fig 8 also 1 mM DTT), 23°C, 6% gel in 0.5x TBE; details: protein: recombinant; tags: noncleavable N-terminal His6 on Rfa2; copies: 1;1;1; label: 5' 6-FAM; single strand
[3] = target: T2, RPA reconstituted with ∆WH-Rfa2: …; assay: fluorescence polarisation; 50 nM 5'-fluorescein-labelled DNA in complex with RPA or RPA∆WH, serially diluted Siz2∆CT; 23°C; 20 mM HEPES pH 7.5, 125 mM NaCl, 0.1% Tween-20; apparent Kd, single-site model with ligand depletion; details: both partners purified
[4] = target: T3, replication protein A (RPA): …; assay: as above; details: both partners purified

T3 sequence (P22336 whole entry, chain 1 of 3, the tested form may be a part): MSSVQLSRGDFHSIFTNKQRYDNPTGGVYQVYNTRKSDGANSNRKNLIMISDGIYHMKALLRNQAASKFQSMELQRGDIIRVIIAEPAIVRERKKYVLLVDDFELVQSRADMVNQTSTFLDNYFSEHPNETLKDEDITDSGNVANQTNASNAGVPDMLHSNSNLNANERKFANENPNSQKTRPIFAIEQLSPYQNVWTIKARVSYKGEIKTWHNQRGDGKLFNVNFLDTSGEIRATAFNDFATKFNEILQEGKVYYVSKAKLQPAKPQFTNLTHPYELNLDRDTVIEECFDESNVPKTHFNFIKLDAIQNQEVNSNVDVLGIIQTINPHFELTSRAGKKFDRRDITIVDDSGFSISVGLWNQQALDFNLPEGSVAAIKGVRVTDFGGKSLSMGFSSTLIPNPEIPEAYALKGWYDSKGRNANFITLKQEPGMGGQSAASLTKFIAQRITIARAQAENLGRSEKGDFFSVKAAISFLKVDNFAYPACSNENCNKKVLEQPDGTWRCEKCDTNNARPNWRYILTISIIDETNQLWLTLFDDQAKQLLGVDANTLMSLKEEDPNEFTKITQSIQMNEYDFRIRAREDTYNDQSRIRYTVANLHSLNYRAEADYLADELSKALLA
T3 sequence (P26754 whole entry, chain 2 of 3, the tested form may be a part): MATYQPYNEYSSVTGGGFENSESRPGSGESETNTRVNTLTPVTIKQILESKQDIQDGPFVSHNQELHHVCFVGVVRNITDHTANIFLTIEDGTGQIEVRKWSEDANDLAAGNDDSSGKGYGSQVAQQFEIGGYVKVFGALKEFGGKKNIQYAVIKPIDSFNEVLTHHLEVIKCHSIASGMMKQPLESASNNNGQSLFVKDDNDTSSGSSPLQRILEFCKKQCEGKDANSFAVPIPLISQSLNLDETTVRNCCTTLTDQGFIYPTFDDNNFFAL
T3 sequence (P26755 whole entry, chain 3 of 3, the tested form may be a part): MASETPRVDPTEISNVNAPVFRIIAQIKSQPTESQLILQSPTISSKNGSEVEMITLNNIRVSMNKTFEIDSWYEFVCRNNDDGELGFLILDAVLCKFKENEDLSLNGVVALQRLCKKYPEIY
T2 sequence (P22336 whole entry, chain 1 of 3, the tested form may be a part): as the sequence (P22336 whole entry, chain 1 of 3, the tested form may be a part) above
T2 sequence (P26754 1-205, chain 2 of 3): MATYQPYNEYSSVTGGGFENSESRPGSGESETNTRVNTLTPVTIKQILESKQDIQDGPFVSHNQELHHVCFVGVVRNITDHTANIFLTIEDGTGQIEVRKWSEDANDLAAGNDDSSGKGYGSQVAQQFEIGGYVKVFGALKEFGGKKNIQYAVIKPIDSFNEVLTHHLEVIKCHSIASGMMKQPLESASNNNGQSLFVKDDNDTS
T2 sequence (P26755 whole entry, chain 3 of 3, the tested form may be a part): as the sequence (P26755 whole entry, chain 3 of 3, the tested form may be a part) above
RPA (Rfa1/Rfa2/Rfa3) (Saccharomyces cerevisiae?, sequence (P22336 whole entry, chain 1 of 3): as the sequence (P22336 whole entry, chain 1 of 3, the tested form may be a part) above
RPA (Rfa1/Rfa2/Rfa3) (Saccharomyces cerevisiae?, sequence (P26754 whole entry, chain 2 of 3): as the sequence (P26754 whole entry, chain 2 of 3, the tested form may be a part) above
RPA (Rfa1/Rfa2/Rfa3) (Saccharomyces cerevisiae?, sequence (P26755 whole entry, chain 3 of 3): as the sequence (P26755 whole entry, chain 3 of 3, the tested form may be a part) above

B1: 6-FAM-ds20 (dsDNA)
DNA 1: GCTGTAGCTAGTTTTGCTTC
DNA 2: GAAGCAAAACTAGCTACAGC
binding result (Siz2∆CT): binds

binding result [1]: binds
binding result [2]: binds
B2: Siz2(1–726) (enzyme, budding yeast, UniProt Q12216 1-726, looked up)
chain: MASVMSNNNNNNNNNNASYMFTNPLSNTGGGLINEIKDAINEMEQLKVLELKQICKSLDLSITGKKAVLQDRIKQFLRKSCDIGHIDPWRPKAIKILIAKVRINSSLPKYSTLWETLKTGAFKHPVASGQLPVTALQSTALPPYSQQQALAYSFTSPFYKPIVQIPDANKKLKQSAGRGCTKMKFKVSKSNHDLLKSNKSYKLYLFSGFSIPFIYETVGHEAIDFPYPCELVFNGTKLEDNVKGLKKQNGTGNPANLTPYLKVPTEMNHLDLHYLNIDKEYSISCFIVEVFSPEALLGKILKRPKIIKQATTAYIKRTLNEQDDDDIITTSTVLSLQCPISCTRMKYPAKTDQCKHIQCFDALWFLHSQSQVPTWQCPICQHPIKFDQLKISEFVDNIIQNCNEDVEQVEISVDGSWKPIHNSSAVITDTVNQNHSVKNENQGTVKQEQDYDSRNAFDTNLRNGSNHNEPEIISLDSSDDEAFIPASKSFPTHVNPRNDQLRADIFPSESEGSSDYNPNHTSTPKGSPTMDQDNYQDAFQMRSFLNQGATTNINDTPTNNSSINSFVTATNGDSRIFYNRGPSTPLLPAVLQNLTNQTEAQRNPYGPNYNTTAQDRNLLGIEGDLPPIPPVDPNSEAETELPTRTTSAAHLPPYIHVSTSGHGDDGKIRKRRHSNVSIYIPKNPYATLMKRRPQANHAIMNKTLAQTNDFNTSAQDNSEVVDLTSD
notes: SUMO E3 ligase Siz2, budding yeast, full length; cloned as Siz2(1–726), called Siz2(1–727) in the purification paragraph; also called full-length Siz2; Siz2(1–727); source: E. coli BL21 (DE3) CodonPlus RIL, purified (Ni-NTA, HiTrap Heparin, Ulp1 cleavage, Ni-NTA, Superdex200)

Binder: TTTTTTTTTTTTTTTTTTTTTTTTTTTTTTTT (ssDNA) [6-FAM-ss32 (32dT)]
Kd (RPA (Rfa1/Rfa2/Rfa3)): < 1 nM

binding result [3]: binds
binding result [4]: binds
B3: Siz2(1–420) (domain or fragment, budding yeast, UniProt Q12216 1-420, looked up)
chain: T1 sequence
notes: SUMO E3 ligase Siz2, budding yeast, residues 1-420 (SAP, PINIT and SP-RING domains; C-terminal region removed); also called Siz2∆CT; source: E. coli BL21 (DE3) CodonPlus RIL, purified (Ni-NTA, TEV cleavage, Superdex75); not shown: His6, N-terminal, cleaved; thioredoxin, N-terminal, cleaved
